The source of these data is a protein production outcome set (Wang et al. 2014).

The nature of the series: label from the status in PepcDB records.
Turning to “DRSRLQCYSEDVTEYRKMEQGLNDLHHRLQAYREYSATGFLLVDARTKTVVEANSAFCQLLGYEESEVLDFTLYQLIAAERPVIEELLINLETQNYLSVPELEYRNREGQTVQVKGEVYRLPWEDREVYCFVMRT”, the protein production result was “failed”.

“DSASQAEQFLKLVHADKLTVPVYAQVQQMLAQRFAQAKAPESKKAVLERYQAKANAELDRAIGWDKIKPELIKLYTTNFTESELKDLNAFYQSPLGKKVLEKMPRLTAESAQLTQAKLQGAVEPVNKLMADMDKELGVAAPAQKKK”: the protein production result is recorded as “not failed”.

With “DSFKNLENKYDGKIGIYTLNTDDKTNIKYNESYHFPICSVFKFLLVGAILDYDMHNQGFLDKKIPINQDDIGKLGYAPITAKNVGKTLTISQLNYAAILSDSPASNILVRELGGLQNLNKFIKKLGDNDTIITADEPEINYTQPHSNINKTTPKAITKDIYKLAFGNILDKKHKDIFIKYLQDNNTGANRIAFSMPKDWIIGDKTGTCGQYAATNDVAIIWPKNQQPIALGILYTNPNDKNAPSNEEIIQQAAKLIANDLTNTYK”, the protein production entry is listed as “not failed”.

Take “DSTGKTKTAYDFSAGGISPDAPLVVLFHGLEGSSRSHYAVELMLAVRNRGWHGAVVHFRSCGGVANTAPVFYHLGDTAEIAFALDTLTARYREIYAVGVSLGGNAPAKYLGEQGKKALPHASAAVSAPVDAEAAGSRFDSGITRLLYTRYFLRTLIPKARSLQGFQTAFAAGCKTLGEFDDRFTAPLHGFADRHDYYRQTSCKPLLKHVAKPLLLLNAANDPFLPPEALPRADEASEAVTLFQPAHGGHAGFVSST”: the protein production entry is reported as “failed”.

For the sequence “DVDIQLVSSNNINDYLHVYDAFARPFGDSYANMVKQHIYSSYNLDDIERLVAYVNHQPVGIVDIIMTDKTIEIDGFGVLEEFQHQGIGSEIQAYVGRMANERPVILVADGKDTAKDMYLRQGYVYQGF”, the protein production result is “failed”.

Take “DYQKEYERKLISPEEAANLVKDGMHIEIGGSANTALIIDKYLAKRKDELSHVEVGTFIDIAHYEFLKADPEQEKIKWESCFLYEPVRKCSKELGPCVHRPGVLSDAGYIAKELGGVLKGGKKYTDIAFLVTTPMDRHGFFNFGVTCTFLKSIAEGAEKVVVVVKKDMPWVNGGYDECIHISEVDYIVEDNEFPTPFLPFLPPPSKEDEMIAENIMEAGLIENGSTLQVGIGGLPNTVVRMLKEAGLKDLGIHTEMMGDGLMELMEEGIVTNQNKKLDRGKAVFSFALGTRKLYDFLDRNPEVATYPVEYTNNPFVVAQQPKMFSLNQVAQIDLMGQINSGQIGLTSPSGKIFQISGTGGQLDFVLGCFYSFDRQGKSVLATYSTYNGTSRIIPALPTGAGVTVPRSVVQYVATEWGIAYLRGLPIYKRAAAMIQLAHPDHRDWLEEEARKLGILPPKYSIPAGKADGVIYRRD”: the protein production entry was “failed”.

“EAGEITFTEWCQGAVDMWRANDITRSDITRATRALKPKAGAVDLLAHLQQTDIRFGILSAGVANLAARFEPYEPAFVRGNWLQFEDRRVSAIDIGVGPNEKGELLRKIRSKQNPVSITYIGDSHTDTEAFIEADTAVLFDPDERVPETAIDAADTIIESADIAEVQNCIPTA”: the protein production result is “failed”.

“EAHRVLFGFVPETKEELQVMPGNIVFVLKKGNDNWATVMFNGQKGLVPCNYLEPV”: the protein production result was “not failed”.

As to “EDAWMGTHPKYLEMMELDIGDATQVYVAFLVYLDLMESKSWHEVNCVGLPELQLICLVGTEIEGEGLQTVVPTPITASLSHNRIREILKASRKLQGDPDLPMSFTLAIVESDSTIVYYKLTD”, the protein production result was “not failed”.

As to “EDDKLKSVEALRQKGNELFVQKDYKEAIDAYRDALTRLDTLILREKPGEPEWVELDRKNIPLYANMSQCYLNIGDLHEAEETSSEVLKREETNEKALFRRAKARIAAWKLDEAEEDLKLLLRNHPAAASVVAREMKIVTERRAEKKADSRVTYSKMFQP”, the protein production result is “not failed”.

For “EDSLATVKVVLIPVGQEIVIPFKVDTILKYLKDHFSHLLGIPHSVLQIRYSGKILKNNETLVQHGVKPQEIVQVEIFSTNPDLYPVRR”, the protein production result is given as “failed”.

Take “EDVEFVRLNVSDLLTDPELAQSIFSLLVSAHYQTSPNDWLALLSDPSLFCWAGIDKSSRNVLTCALVSLEGQLDNELIADIQVGKRRPRGHLVPVSLTQTLCINEPAQQSCIRIMRIAVEQHYQRMHLGSKFIEYIKAFYCDLGIDYLSTSFGSTPGLNEFWLSLDF”: the protein production result is on record as “failed”.

In the case of “EDVSWIKPGQVSWEWWNGATPYGQDVTFKAGCNLETYKYFIDFASKFGIPYIIMDEGWAKSTRDPYTPNPDVDLHELIRYGKEKNVGIVLWLTWLTVEKNFDLFKTFNEWGIKGVKIDFMDRSDQWMVNYYERVAQEAARHHLFVDFHGSFKPAGLEYKYPNVLSYEGVRGMEQMGGCKPENSIYLPFMRNAVGPMDYTPGAMISMQPNIYRSERPNSASIGTRAYQMALFVIFESGLQMLADNPTLYYRNEDCTRFITQVPVTWDET”, the protein production entry is “failed”.

For “EEHRGEEILAVFDTAFGQLLAADPAAFRVKFRKMAASAFAFYRGTAGLFYRDLTEDPDFGDQHGGAYLDERTSRVWIHGDLHAENFGTYMDSTGRLIFNVNDFDEAYVGPFTWDLKRFAASVALIGYAKAFSDEQITELVRVY”, the protein production result is “failed”.

Consider “EELEYKGMNTLQISNVDDLISFYQYADDRIPLISGHRGGRGKGYPENSMETFENTLSYTPATFEIDPRLTKDSVIVLFHDDTLERTSNGTGKVSDYTWEELQNFRLKDPEGNITNYRIPTLEEAIRWARGKTILILDKKDVPMERTAQLITDMQAEPYVMITVHDGASARFFYEKNPNFMFEAFVKTKEAVQDYEDNGIPWSHIMAYVGPKITPEVREVIDMLHERGVMCMISTAPSDDKLSTPESRAEAYRMIIRQGVDIIESDRPIEVAEAISSLIPVSSSKGKFFSTL”, for which the protein production entry is “not failed”.

Take “EENPRGRFAITLPHSLESNVVMPAIEQLCIEYPGIEPEIIVSDSSLDLVENNLDVAIHAGDLPDSSYRALPIGTITEIFCATPLYLNKNFTPQKLSDLAQLKWI”: the protein production entry is listed as “failed”.

On to “EHFNDMIEKRVKSEIRNQVDLKKPMVRISVAISGGKDSSVTLYLLHKILSKRRNVELTAFTVDEGISGYRPAGLESAIKLTKMLGVDHSIIRFQDSFGMTLDSIVGADASRIPCSYCGPLRRKLINEMAERQNADYVALGLNLDDYSQSILMNVAKGDYDRLLRMSPQKEAKDGLVRRIAPLRSVLEKEVVLYAVINGIPFDSSWC”, for which the protein production entry is reported as “failed”.

On to “EHGLLVHKAVDKWTTEEVVLWLEQLGPWASLYRDRFLSERVNGRLLLTLTEEEFSRAPYTIENSSHRRVILTELERVR”, for which the protein production entry is “not failed”.

In the case of “EKMTRDEIAYMLTNSEETLDADEIEMLQGVFSLDELMAREVMVPRTDAFMVDIQDDSQAIIQSILKQNYSRIPVYDGDKDNVIGIIHTKSLLKAGFVDGFDNIVWKRILQDPLFVPETIFVDDLLKELRNTQRQMAILLDEYGGMAGLVTLEDLLEEIVGEID”, the protein production entry is on record as “not failed”.

Regarding “ELPSVEELTIILPEDIELKPLGMVSSIIEQLVIIESMTNLPPVNEETVIFKSDRQAAGKIFEIFGPVAHPFYVLRFNSSDHIESKGIKIKETMYFA”, the protein production entry was “not failed”.

Take “EMRKFLVVLDDSRECLNAMRFAAMRAAHTGGGVAILSIIPPDEFNHWIGVGEVMREEARERIHAHFEVFAKWMRDKQGVEPELVIREGEAVPEIIAHVQEDPEIGVLVLGAGTDKKGPGPLVSQLSRSSGSLPIPITIVPGDLSKE”: the protein production result is on record as “failed”.

In the case of “ENGRYEYIVIGSEAAGVGLVRELTAAGKKVLAVDKSKEKIELLEDEGFDAVIADPTDESFYRSLDLEGVSAVLITGSDDEFNLKILKALRSVSDVYAIVRVSSPKKKEEFEEAGANLVVLVADAVKQAFMDKIKKMETL”, the protein production entry is reported as “not failed”.

On to “EPLTIREYRPEDLEALLPLYEQLGYPTRTDELRDRLAGLLSHEDYHLLVAECDGQLVAFIGYARMYFFEHDGSYYRILALAVS”, for which the protein production result is on record as “failed”.

For “EPPDGVRIVPVTDRAGVDLVADVHEKAFGTDSTRMRHQLLAQVTDDPDAVVAVVALAGDEPVSAARMELVPGTRFAGLWGGGTVEGERGRGIYRALVAHRAKVAADRGYRYVQVDATSQSRPVLARLGFEPLTTTTPYVS”, the protein production result is “failed”.

With “EQTTAADLPLTLAIAREVGNLLLTDSLLAETNRHLNQLNALLESMDDGVISWDEQGNLQFINAQAARVLRLDATASQGRAITELLTLPAVLQQAIKLAHPLKHVEATFESQHQFIDAVITLKPIIETQGTSFILLLHP”, the protein production result was “failed”.

Consider “ERFQFAGSGGHQLAAALDLPDAQPLAYALFAHCFTCSKDNLAARRISAAMAARGIAVLRFDFTGLGASEGEFENATFSSNVADLVLAADHLRATHRAPTLLIGHSLGGAAVLAAAAQIPEAKAIATIAAPSDPSHVTGLFADDIETIRTEGRVNVSLAGRPFTIKREFLDDIAEHNLMAEIGKLHKALLILHAPTDDTVGIDNATKIFLAAKHPKSFVSLDHADHLLSDRRDANYAAGVIAAWAQRYIDAEPPAPTAGAPEVPR”, for which the protein production entry is “failed”.

As for “ERRAPRKGNTLYVYGEDMTPTLLRGAFSPFGNIIDLSMDPPRNCAFVTYEKMESADQAVAELNGTQVESVQLKVNIARKQPMLD”, the protein production entry is reported as “not failed”.

As to “ERYMQDFDLIFKELERWGPGSESDTLKALQKVPNKSMTLLEIGCGQGIATELFARHTDAMITAVDNEEFALKHLMEKMQQNGLEDKITTVCADMAKMPFETKSFDLIWSEGSAYIMGVQNALKAWKPLLSEDGVLVVSDLVWSTDKPSEGALSFWKKEYPDMVSVSERIKHAQQAGYEVIEHFSLSDAAWEAYYHPLIERLDTLKDKLIDSPVLIDFENEITAFKQRANEFDYEIFILRSR”, the protein production result is recorded as “failed”.

In the case of “ESLKAGSSWQCDTCLLQNKVTDNKCIACQAAKLSPRDTAKQTGIETPNKSGKTTLSASGTGFGDKFKPVIGTWDCDTCLVQNKPEAIKCVACETPKPGTCVKRALTLTVV”, the protein production entry is recorded as “failed”.

As to “ESLQQVVMAYFGVQFKSEQKAIALKAMQHIVQSFSLDNGPQNHDITHHTDNQGYENYIVVGYWRDPGAYCRWFRSTEVSHWWDSDERLNDGIGYFREIVIPRADQFETLYAFKEDLPGVGAVMDDISDDIQEHGYWGSARERF”, the protein production entry is “not failed”.

With “ETDKTAISVREIADNTYIVLGTMTLNDFNEYFETDLESDNVDTIAGFYLTGVGTIPSQEEKEHFEVESNGKHLELINDKVKDGRVTKLKILVSE”, the protein production result is listed as “failed”.

For the sequence “ETLPPRQRQRALALPLRLNPRTVALGAQWRQEAGADDAAIVQRALNWVRTEFTYTLAATKRPGLHTVDEFLFRDKAGFCEQFSSSFVVLMRASGIPARVVTGYVGGIYNNLGHYWVIRRMDAHAWAEVWLPQRGWVRVDPTAAVAPERIRDTLEDRLAQNNNDASIDSHWRLADIGDWLRHSWNNLVLGFDAKRQQQLLHSFGINHLYVSQLMMLFIAFTSVSLGLMAWWLARGERERDALLRAWHRLDRHYARLGLGRTRHEPALVW”, the protein production entry was “failed”.

Consider “EVVVAVASAPVDVAQVGRRRGRLAVIGLGPGAAELMVPAVKAELAQAEDVLGYETYVRMAGPFRGDQVLHCTDNREEMQRARHAFELAAQGRSVAVVSSGDPGVFAMAAAVLEALHESSDPTWHRVDLQILPGV”, for which the protein production entry was “failed”.
